Test results reported in paper PMC12016152.

How the values were obtained:
[1] = surface biotinylation, western blot, CHO (n = 2); conditions: glycan lost; control: ASIC1a + ASIC4WT
[2] = whole-cell patch clamp, pH 5.0 peak current density, CHO; conditions: glycan lost; control: ASIC1a + ASIC4WT
[3] = amygdala cell surface fraction, western blot, Asic4-/- mice; conditions: glycan lost; control: AAV-DIO-ASIC4WT rescue

| Protein | other: surface expression of co-expressed ASIC1a [1] | other: channel current of co-expressed ASIC1a [2] | other: surface expression of ASIC1a in vivo [3] |
| --- | --- | --- | --- |
| ASIC4: ASIC4N376A (protein) parent chain: MPIEIVCKIKFAEEDAKPKEKEAGDEQSLLGAAQGPAAPRDLATFASTSTLHGLGRACGPGPHGLRRTLWALALLTSLAAFLYQAASLARGYLTRPHLVAMDPAAPAPVAGFPAVTLCNINRFRHSALSDADIFHLANLTGLPPKDRDGHRAAGLRYPEPDMVDILNRTGHQLADMLKSCNFSGHHCSASNFSVVYTRYGKCYTFNADPQSSLPSRAGGMGSGLEIMLDIQQEEYLPIWRETNETSFEAGIRVQIHSQEEPPYIHQLGFGVSPGFQTFVSCQEQRLTYLPQPWGNCRAESELREPELQGYSAYSVSACRLRCEKEAVLQRCHCRMVHMPGNETICPPNIYIECADHTLDSLGGGSEGPCFCPTPCNLTRYGKEISMVKIPNRGSARYLARKYNRNETYIRENFLVLDVFFEALTSEAMEQQAAYGLSALLGDLGGQMGLFIGASILTLLEILDYIYEVSWDRLKRVWRRPKTPLRTSTGGISTLGLQELKEQSPCPSRGRAEGGGASSLLPNHHHPHGPPGSLFEDFAC | no change | no change | – |
| ASIC4: ASIC4N191A (protein) parent chain: MPIEIVCKIKFAEEDAKPKEKEAGDEQSLLGAAQGPAAPRDLATFASTSTLHGLGRACGPGPHGLRRTLWALALLTSLAAFLYQAASLARGYLTRPHLVAMDPAAPAPVAGFPAVTLCNINRFRHSALSDADIFHLANLTGLPPKDRDGHRAAGLRYPEPDMVDILNRTGHQLADMLKSCNFSGHHCSASNFSVVYTRYGKCYTFNADPQSSLPSRAGGMGSGLEIMLDIQQEEYLPIWRETNETSFEAGIRVQIHSQEEPPYIHQLGFGVSPGFQTFVSCQEQRLTYLPQPWGNCRAESELREPELQGYSAYSVSACRLRCEKEAVLQRCHCRMVHMPGNETICPPNIYIECADHTLDSLGGGSEGPCFCPTPCNLTRYGKEISMVKIPNRGSARYLARKYNRNETYIRENFLVLDVFFEALTSEAMEQQAAYGLSALLGDLGGQMGLFIGASILTLLEILDYIYEVSWDRLKRVWRRPKTPLRTSTGGISTLGLQELKEQSPCPSRGRAEGGGASSLLPNHHHPHGPPGSLFEDFAC | increases | increases | increases |
| ASIC4: ASIC4N191A, N243A, N341A, N376A (protein) parent chain: MPIEIVCKIKFAEEDAKPKEKEAGDEQSLLGAAQGPAAPRDLATFASTSTLHGLGRACGPGPHGLRRTLWALALLTSLAAFLYQAASLARGYLTRPHLVAMDPAAPAPVAGFPAVTLCNINRFRHSALSDADIFHLANLTGLPPKDRDGHRAAGLRYPEPDMVDILNRTGHQLADMLKSCNFSGHHCSASNFSVVYTRYGKCYTFNADPQSSLPSRAGGMGSGLEIMLDIQQEEYLPIWRETNETSFEAGIRVQIHSQEEPPYIHQLGFGVSPGFQTFVSCQEQRLTYLPQPWGNCRAESELREPELQGYSAYSVSACRLRCEKEAVLQRCHCRMVHMPGNETICPPNIYIECADHTLDSLGGGSEGPCFCPTPCNLTRYGKEISMVKIPNRGSARYLARKYNRNETYIRENFLVLDVFFEALTSEAMEQQAAYGLSALLGDLGGQMGLFIGASILTLLEILDYIYEVSWDRLKRVWRRPKTPLRTSTGGISTLGLQELKEQSPCPSRGRAEGGGASSLLPNHHHPHGPPGSLFEDFAC | increases | increases | – |
| ASIC4: ASIC4N341A (protein) parent chain: MPIEIVCKIKFAEEDAKPKEKEAGDEQSLLGAAQGPAAPRDLATFASTSTLHGLGRACGPGPHGLRRTLWALALLTSLAAFLYQAASLARGYLTRPHLVAMDPAAPAPVAGFPAVTLCNINRFRHSALSDADIFHLANLTGLPPKDRDGHRAAGLRYPEPDMVDILNRTGHQLADMLKSCNFSGHHCSASNFSVVYTRYGKCYTFNADPQSSLPSRAGGMGSGLEIMLDIQQEEYLPIWRETNETSFEAGIRVQIHSQEEPPYIHQLGFGVSPGFQTFVSCQEQRLTYLPQPWGNCRAESELREPELQGYSAYSVSACRLRCEKEAVLQRCHCRMVHMPGNETICPPNIYIECADHTLDSLGGGSEGPCFCPTPCNLTRYGKEISMVKIPNRGSARYLARKYNRNETYIRENFLVLDVFFEALTSEAMEQQAAYGLSALLGDLGGQMGLFIGASILTLLEILDYIYEVSWDRLKRVWRRPKTPLRTSTGGISTLGLQELKEQSPCPSRGRAEGGGASSLLPNHHHPHGPPGSLFEDFAC | increases | increases | – |
| ASIC4: ASIC4N243A (protein) parent chain: MPIEIVCKIKFAEEDAKPKEKEAGDEQSLLGAAQGPAAPRDLATFASTSTLHGLGRACGPGPHGLRRTLWALALLTSLAAFLYQAASLARGYLTRPHLVAMDPAAPAPVAGFPAVTLCNINRFRHSALSDADIFHLANLTGLPPKDRDGHRAAGLRYPEPDMVDILNRTGHQLADMLKSCNFSGHHCSASNFSVVYTRYGKCYTFNADPQSSLPSRAGGMGSGLEIMLDIQQEEYLPIWRETNETSFEAGIRVQIHSQEEPPYIHQLGFGVSPGFQTFVSCQEQRLTYLPQPWGNCRAESELREPELQGYSAYSVSACRLRCEKEAVLQRCHCRMVHMPGNETICPPNIYIECADHTLDSLGGGSEGPCFCPTPCNLTRYGKEISMVKIPNRGSARYLARKYNRNETYIRENFLVLDVFFEALTSEAMEQQAAYGLSALLGDLGGQMGLFIGASILTLLEILDYIYEVSWDRLKRVWRRPKTPLRTSTGGISTLGLQELKEQSPCPSRGRAEGGGASSLLPNHHHPHGPPGSLFEDFAC | no change | no change | no change |
